Data taken from the supplement of paper PMC9112550, “Optimization of the antimicrobial peptide Bac7 by deep mutational scanning” (BMC Biology, 2022).

tested on: Escherichia coli TOP10; experiment: shrunken log2 fold change of peptide-encoding DNA abundance (4.5 h post-induction vs induction); higher = less antimicrobial activity (less host growth inhibition); conditions: time post-induction: 4.5 h; library: site-saturation at positions 5, 18, 19, 20
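Note: peptides expressed intracellularly from a pBAD plasmid library in pooled LB shake-flask culture, induced with 0.3% L-arabinose, DNA abundance read by NGS, three biological replicates, DESeq2 with apeglm shrinkage.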

| Sequence | shrunken log2 fold change |
| --- | --- |
| RRIRSRPPRLPRPRPRPWSCPRP | 0.194 |
| RRIRHRPPRLPRPRPRPTFRPRP | 0.0997 |
| RRIRERPPRLPRPRPRPSGLPRP | -0.195 |
| RRIRVRPPRLPRPRPRPFHAPRP | -0.229 |
| RRIRDRPPRLPRPRPRPEIGPRP | 0.765 |
| RRIRMRPPRLPRPRPRPLPYPRP | 0.0635 |
| RRIRRRPPRLPRPRPRPREHPRP | 0.673 |
| RRIRNRPPRLPRPRPRPWQFPRP | -0.0175 |
| RRIRVRPPRLPRPRPRPACGPRP | 0.122 |
| RRIRDRPPRLPRPRPRPTDPPRP | 0.0862 |
| RRIRSRPPRLPRPRPRPNIQPRP | -0.28 |
| RRIRLRPPRLPRPRPRPSSMPRP | -0.179 |
| RRIRWRPPRLPRPRPRPIPAPRP | 0.523 |
| RRIRVRPPRLPRPRPRPVWKPRP | 0.0859 |
| RRIRWRPPRLPRPRPRPVANPRP | 0.0636 |
| RRIRFRPPRLPRPRPRPGSAPRP | 0.182 |
| RRIRSRPPRLPRPRPRPEHCPRP | -0.0141 |
| RRIRNRPPRLPRPRPRPTGQPRP | -0.115 |
| RRIRERPPRLPRPRPRPPKWPRP | -0.176 |
| RRIRRRPPRLPRPRPRPIMIPRP | -0.105 |
| RRIRNRPPRLPRPRPRPWVEPRP | -0.109 |
| RRIRERPPRLPRPRPRPRAVPRP | 0.264 |
| RRIRPRPPRLPRPRPRPKLLPRP | -0.0549 |
| RRIRHRPPRLPRPRPRPKCVPRP | -0.069 |
| RRIRHRPPRLPRPRPRPNSFPRP | 0.00867 |

| Sequence | shrunken log2 fold change |
| --- | --- |
| RRIRGRPPRLPRPRPRPPHIPRP | 0.551 |
| RRIRNRPPRLPRPRPRPITVPRP | -0.0598 |
| RRIRKRPPRLPRPRPRPQPMPRP | 0.462 |
| RRIRMRPPRLPRPRPRPHQMPRP | 0.126 |
| RRIRFRPPRLPRPRPRPPHQPRP | 0.301 |
| RRIRNRPPRLPRPRPRPDCRPRP | -0.119 |
| RRIRNRPPRLPRPRPRPWISPRP | -0.0184 |
| RRIRSRPPRLPRPRPRPDKHPRP | -0.402 |
| RRIRPRPPRLPRPRPRPHTDPRP | -0.327 |
| RRIRRRPPRLPRPRPRPLQCPRP | 0.18 |
| RRIRERPPRLPRPRPRPWEDPRP | -0.0727 |
| RRIRIRPPRLPRPRPRPNVEPRP | -0.325 |
| RRIRRRPPRLPRPRPRPLWIPRP | -0.22 |
| RRIRARPPRLPRPRPRPWYIPRP | -0.257 |
| RRIRRRPPRLPRPRPRPGCMPRP | 0.835 |
| RRIRLRPPRLPRPRPRPQDAPRP | 0.0335 |
| RRIRIRPPRLPRPRPRPDNLPRP | -0.00843 |
| RRIRERPPRLPRPRPRPEIIPRP | 0.0655 |
| RRIRSRPPRLPRPRPRPIHCPRP | -0.452 |
| RRIRTRPPRLPRPRPRPLLTPRP | -0.0897 |
| RRIRMRPPRLPRPRPRPIWIPRP | 0.14 |
| RRIRRRPPRLPRPRPRPNIRPRP | -0.144 |
| RRIRCRPPRLPRPRPRPPLIPRP | -0.000572 |
| RRIRMRPPRLPRPRPRPVDQPRP | 0.0463 |
| RRIRPRPPRLPRPRPRPVAAPRP | 0.406 |

| Sequence | shrunken log2 fold change |
| --- | --- |
| RRIRSRPPRLPRPRPRPHRIPRP | -0.706 |
| RRIRIRPPRLPRPRPRPQCNPRP | -0.0824 |
| RRIRTRPPRLPRPRPRPMKRPRP | 0.298 |
| RRIRQRPPRLPRPRPRPRPRPRP | 0.414 |
| RRIRKRPPRLPRPRPRPLYYPRP | -0.458 |
| RRIRCRPPRLPRPRPRPTRWPRP | 0.284 |
| RRIRIRPPRLPRPRPRPVRYPRP | 0.326 |
| RRIRNRPPRLPRPRPRPFDTPRP | 0.0291 |
| RRIRMRPPRLPRPRPRPEGCPRP | 3.93 |
| RRIRDRPPRLPRPRPRPPYIPRP | -0.346 |
| RRIRWRPPRLPRPRPRPAFNPRP | -0.116 |
| RRIRYRPPRLPRPRPRPHHDPRP | -0.917 |
| RRIRFRPPRLPRPRPRPAMPPRP | 0.0356 |
| RRIRSRPPRLPRPRPRPKWNPRP | -0.154 |
| RRIRHRPPRLPRPRPRPTHYPRP | -0.26 |
| RRIRGRPPRLPRPRPRPERCPRP | 0.203 |
| RRIRKRPPRLPRPRPRPGNPPRP | 0.85 |
| RRIRTRPPRLPRPRPRPARSPRP | 0.0134 |
| RRIRGRPPRLPRPRPRPHGCPRP | 0.585 |
| RRIRFRPPRLPRPRPRPYVNPRP | -1.52 |
| RRIRTRPPRLPRPRPRPQDIPRP | -0.0501 |
| RRIRTRPPRLPRPRPRPSSAPRP | -0.172 |
| RRIRERPPRLPRPRPRPLKTPRP | -0.457 |
| RRIRQRPPRLPRPRPRPMSVPRP | 0.0173 |
| RRIRARPPRLPRPRPRPCMKPRP | -0.167 |
